Eleven molecules from patent US20240424125A1 (Zymeworks, published 2024) can be followed below.

Where a chain is given by its changes, count along the chain named.

The target in test [1] is T1, recombinant His-tagged human FRα (ACROBiosystems) (human, UniProt P15328 25-233).
T1 construct: also called hFRα; hFRα antigen; not shown: His tag
The test is described as follows: BLI (Octet RED96): antibody on anti-human IgG Fc capture biosensor, His-tagged hFRα as analyte, 1:1 global fit, mean of n=2. How it is done:
(§1) The assay buffer used was KB buffer (kinetics buffer, composed of PBS pH 7.4, 0.1% BSA, 0.02% Tween 20, 0.05% sodium azide) supplemented with 0.06% Tween 20 and in some instances also with 1% BSA. The experiment was conducted at 30° C. with a shake speed of 1000 rpm.
(§2) Data analysis was performed using Data Analysis Software 9.0 (ForteBio, Fremont CA). The reference-subtracted binding curves were globally fitted to the 1:1 interaction model to generate the binding kinetic parameters kₒₙ, koff, and the dissociation constant KD.
(BLI is a label-free optical method that tracks binding on a fibre tip over time.)

In test [2] the target is T1, recombinant His-tagged human FRα …. The test is described as follows: BLI (Octet RED96) as in Example 8: antibody captured, His-tagged hFRα as analyte, mean of n=2. On the procedure: as §1, §2

T1 sequence (P15328 25-233 limits assumed): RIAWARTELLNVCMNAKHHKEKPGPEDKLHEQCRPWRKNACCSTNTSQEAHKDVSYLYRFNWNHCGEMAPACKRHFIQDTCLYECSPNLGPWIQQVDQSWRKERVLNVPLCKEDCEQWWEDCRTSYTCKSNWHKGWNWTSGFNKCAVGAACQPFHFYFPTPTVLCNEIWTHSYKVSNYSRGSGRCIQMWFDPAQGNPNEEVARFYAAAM

B1: v30389 (antibody, human IgG1, kappa)
heavy 1: EVQVLESGGGLVQPGGSLRLSCAVSGFSLSSYGVSWVRQAPGKGLEWIGAVNSGGSAYYADSVKGRSTISRDNSKNTVYLQMNSLRAEDTAVYYCARSGSGYPMDYLAIWGQGTLVTVSSASTKGPSVFPLAPSSKSTSGGTAALGCLVKDYFPEPVTVSWNSGALTSGVHTFPAVLQSSGLYSLSSVVTVPSSSLGTQTYICNVNHKPSNTKVDKKVEPKSCDKTHTCPPCPAPELLGGPSVFLFPPKPKDTLMISRTPEVTCVVVDVSHEDPEVKFNWYVDGVEVHNAKTKPREEQYNSTYRVVSVLTVLHQDWLNGKEYKCKVSNKALPAPIEKTISKAKGQPREPQVYVYPPSRDELTKNQVSLTCLVKGFYPSDIAVEWESNGQPENNYKTTPPVLDSDGSFALVSKLTVDKSRWQQGNVFSCSVMHEALHNHYTQKSLSLSPG
heavy 2: not shown
light: DYQMTQSPSSVSASVGDRVTITCRASQSIGDWLAWYQQKPGKAPKLLIYEASTLASGVPSRFSGSGSGTDFTLTISSVQPEDAATYYCQQGYGRSNVDNIFGGGTKVEVKRTVAAPSVFIFPPSDEQLKSGTASVVCLLNNFYPREAKVQWKVDNALQSGNSQESVTEQDSKDSTYSLSSTLTLSKADYEKHKVYACEVTHQGLSSPVTKSFNRGEC
notes: Humanized IgG1/kappa, HetFc; also called 3bH4L
Take B1: the Kd in test [1] worked out at 100 nM.

B2: v31423 (antibody, human IgG1, kappa, V domains shown)
VH: EVQLLESGGGLVQPGGSLRLSCAVSGFSLSSYGVSWVRQAPGKGLEWIGAVNSGGSAYYADSVKGRSTISRDTSKNTVYLQMNSLRAEDTAVYYCARSGSGYPMDYLAIWGQGTLVTVSS
VL: DYQMTQSPSSVSASVGDRVTITCRASQSIGDWLAWYQQKPGKAPKLLIYEASTLASGVPSRFSGSGSGTDFTLTISSVQPEDAATYYCQQGYGRSNVDNIFGGGTKVEVKR
notes: Humanized IgG1/kappa, HomoFc; also called 3dH4L
On to B2, for which, in test [1], the dissociation constant (Kd) worked out at 110 nM.

B3: v35342 (antibody, human IgG1, kappa, V domains shown)
VH: B2 VH with S31L, A50S, V51L, T73N
VL: B2 VL with G30W, D31Y, S95W, N96H, V97I, D98L
In the case of B3, in test [2], the equilibrium dissociation constant (Kd) was 4.1 nM.

B4: v31422 (antibody, human IgG1, kappa)
heavy: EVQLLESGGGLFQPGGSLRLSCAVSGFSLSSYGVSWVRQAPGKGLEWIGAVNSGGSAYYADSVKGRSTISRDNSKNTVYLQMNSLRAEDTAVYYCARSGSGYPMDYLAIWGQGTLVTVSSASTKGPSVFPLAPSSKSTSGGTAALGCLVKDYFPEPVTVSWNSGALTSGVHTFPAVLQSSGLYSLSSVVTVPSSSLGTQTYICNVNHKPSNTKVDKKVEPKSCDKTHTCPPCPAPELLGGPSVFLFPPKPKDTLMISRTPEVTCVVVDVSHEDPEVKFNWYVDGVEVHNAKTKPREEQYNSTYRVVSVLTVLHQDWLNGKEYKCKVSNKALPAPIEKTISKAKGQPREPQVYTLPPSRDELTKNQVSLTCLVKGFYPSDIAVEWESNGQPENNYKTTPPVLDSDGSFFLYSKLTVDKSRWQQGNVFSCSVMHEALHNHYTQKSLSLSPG
light: B1 light
notes: Humanized IgG1/kappa, HomoFc; also called 3cH4L
On to B4, for which, in test [1], the dissociation constant (Kd) worked out at 180 nM.

B5: v35350 (antibody, human IgG1, kappa, V domains shown)
VH: B2 VH with S31L, V63F, T73N, L107H, A108P
VL: B2 VL with G30W, D31Y, S95W, N96H, V97I, D98L
Consider B5, for which the Kd in test [2] came to 3.55 nM.

B6: v35354 (antibody, human IgG1, kappa, V domains shown)
VH: B2 VH with S31L, V63F, T73N
VL: B2 VL with G30W, D31Y, S95W, N96H, V97I, D98L
For B6, the Kd in test [2] was 3.13 nM.

B7: v35347 (antibody, human IgG1, kappa, V domains shown)
VH: B2 VH with S31L, V63F, T73N, L107H, A108P
VL: B2 VL
In the case of B7, in test [2], the dissociation constant Kd turned out to be 8.65 nM.

B8: v35358 (antibody, human IgG1, kappa, V domains shown)
VH: B2 VH with V63F, T73N, L107H, A108P
VL: B2 VL with G30W, D31Y, S95W, N96H, V97I, D98L
Take B8: the Kd in test [2] amounted to 7.22 nM.

B9: v31424 (antibody, human IgG1, kappa)
heavy: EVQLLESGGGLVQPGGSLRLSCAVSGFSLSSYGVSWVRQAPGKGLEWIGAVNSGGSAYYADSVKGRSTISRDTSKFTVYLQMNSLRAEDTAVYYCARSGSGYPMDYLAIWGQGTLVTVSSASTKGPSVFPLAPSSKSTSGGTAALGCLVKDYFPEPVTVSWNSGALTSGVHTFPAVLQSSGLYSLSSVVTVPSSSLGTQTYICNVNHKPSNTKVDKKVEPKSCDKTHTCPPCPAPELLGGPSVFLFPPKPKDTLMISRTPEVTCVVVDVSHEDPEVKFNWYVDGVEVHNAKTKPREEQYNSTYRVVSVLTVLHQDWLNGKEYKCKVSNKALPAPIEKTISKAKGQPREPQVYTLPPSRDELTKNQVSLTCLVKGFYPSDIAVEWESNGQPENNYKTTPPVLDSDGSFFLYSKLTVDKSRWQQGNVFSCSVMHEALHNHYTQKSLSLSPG
light: B1 light
notes: Humanized IgG1/kappa, HomoFc; also called 3eH4L
Regarding B9, in test [1], the Kd is 110 nM.

B10: v36167 (antibody, human IgG1, kappa, V domains shown)
VH: B2 VH with V63F, T73N
VL: B2 VL with G30W, D31Y, S95W, N96H, V97I, D98L
As to B10, the Kd in test [2] is 7.29 nM.

B11: v36168 (antibody, human IgG1, kappa, V domains shown)
VH: B2 VH with S31L, A50S, T73N
VL: B2 VL with G30W, D31Y, S95W, N96H, V97I, D98L
On to B11, for which the equilibrium dissociation constant (Kd) in test [2] amounted to 4.97 nM.

As usually defined, the Kd is the free concentration of one partner at which half of the binding sites on the other are occupied at equilibrium, for simple one-to-one binding.
